Data as given in paper PMC3873893.

Target: GST-WWCA (bovine N-WASP WWCA, A403-D505) (bovine) (UniProt Q95107)
UniProt Q95107, sequence (Q95107 403-505): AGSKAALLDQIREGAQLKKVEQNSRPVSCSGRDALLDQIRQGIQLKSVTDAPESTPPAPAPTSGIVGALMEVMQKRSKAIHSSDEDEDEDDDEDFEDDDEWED

- barbed-end rate of filaments tethered to WWCA nanofibers, 1 μM actin, 1 mM Mg^2+: 21.4 subunits/s
Substance: rabbit skeletal muscle actin (Mg-ATP actin; filament barbed ends) (from UniProt P68135 1-377) (natural protein)
